Test [1] has as its target HCMV gB ectodomain base construct (gB Base) (human cytomegalovirus, Towne strain) (UniProt P13201). The test is described as follows: SEC; Superose 6 Increase 10/300 GL; 2 mM Tris pH 8.0, 200 mM NaCl, 0.02% sodium azide; LMW peak ~14 mL (trimers), HMW peak ~12 mL (oligomers of trimers).
Test [2] shares this target. The test is described as follows: cryo-EM structure.

On to “HCMV gB ectodomain base construct (gB Base) (from UniProt P13201 23-704) (domain or fragment)”, for which the stoichiometry N in test [1] and in test [2] was 3 each time.
